Measurements: patent US20220125891A1 (OSAKA UNIVERSITY, published 2022)
Positions of bridges follow the written chain, without caps; N, C: chain ends. Non-standard residues stand in square brackets, D forms with d. No end group written: not given here. NMeA = CN[C@@H](C)C(=O)O; dNMeA = CN[C@H](C)C(=O)O

Key:
[1] = target: T1, full-length human Regnase-1 with a FLAG tag on the N-terminal side and a biotin ligase BirA recognition … (human, UniProt Q5D1E8 1-599, biotinylated where required ; Biotinylated at the BirA recognition sequence where required. That sequence is not in the letters.); assay: AlphaScreen, blocks IKKβ binding to FL_Reg1
T1 construct: Expressed in Expi293 cells, purified on FLAG M2 agarose and by gel filtration; also called full-length Regnase-1; human full-length Regnase-1
T1 sequence: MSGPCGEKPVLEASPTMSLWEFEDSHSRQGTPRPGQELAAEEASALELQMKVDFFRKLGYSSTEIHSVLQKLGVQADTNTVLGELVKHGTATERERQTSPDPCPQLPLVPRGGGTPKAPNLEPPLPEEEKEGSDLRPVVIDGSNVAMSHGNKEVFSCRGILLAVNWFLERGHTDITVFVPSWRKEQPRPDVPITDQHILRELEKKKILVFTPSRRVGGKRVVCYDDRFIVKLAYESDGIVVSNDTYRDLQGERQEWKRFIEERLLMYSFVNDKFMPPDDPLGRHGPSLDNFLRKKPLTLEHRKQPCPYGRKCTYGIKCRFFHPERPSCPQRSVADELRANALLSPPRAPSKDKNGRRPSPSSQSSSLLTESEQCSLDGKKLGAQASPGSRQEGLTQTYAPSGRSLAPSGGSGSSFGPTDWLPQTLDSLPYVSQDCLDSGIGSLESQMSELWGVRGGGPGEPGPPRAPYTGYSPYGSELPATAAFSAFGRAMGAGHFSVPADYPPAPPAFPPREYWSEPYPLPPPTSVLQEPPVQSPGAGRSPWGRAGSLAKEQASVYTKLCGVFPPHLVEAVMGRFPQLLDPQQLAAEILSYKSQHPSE

[2] = target: T1, full-length human Regnase-1 with a FLAG …; assay: AlphaScreen, blocks TBK1 binding to FL_Reg1
[3] = target: T2, Reg1_301-599 (human Regnase-1 amino acids 301 to 599, FLAG tag on the N-terminal side, BirA recognition … (human)); assay: cell-based or functional assay
T2 sequence (Q5D1E8 301-599, looked up): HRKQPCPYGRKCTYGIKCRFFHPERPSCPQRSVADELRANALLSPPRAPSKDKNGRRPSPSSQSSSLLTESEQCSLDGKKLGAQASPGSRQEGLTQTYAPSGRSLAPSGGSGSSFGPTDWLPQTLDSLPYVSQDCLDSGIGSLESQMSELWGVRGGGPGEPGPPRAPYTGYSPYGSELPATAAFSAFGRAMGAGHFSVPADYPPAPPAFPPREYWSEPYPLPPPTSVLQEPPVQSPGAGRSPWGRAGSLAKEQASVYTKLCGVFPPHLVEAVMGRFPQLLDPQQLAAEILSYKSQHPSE

[4] = target: T3, ΔCTD_Reg1 (human Regnase-1 amino acids 1 to 546, FLAG tag on the N-terminal side, BirA recognition sequence … (human)); assay: cell-based or functional assay
[5] = target: T1, full-length human Regnase-1 with a FLAG …; assay: cell-based or functional assay
[6] = target: T1, full-length human Regnase-1 with a FLAG …; assay: affinity selection-MS (SEC, LC/MS), 1 µM each
[7] = target: T2, Reg1_301-599 (human Regnase-1 amino …); assay: cell-based or functional assay; remark: listed apart in the source
[8] = target: T3, ΔCTD_Reg1 (human Regnase-1 amino acids …); assay: cell-based or functional assay; remark: listed apart in the source
[9] = target: T1, full-length human Regnase-1 with a FLAG …; assay: cell-based or functional assay; remark: listed apart in the source

Binder: [NMeA]WIWDFWNED (lactam N-10) [PP24]
- IC50 [1]: 8.8 µM
- IC50 [2]: 7.7 µM
- IC50, phosphorylation by TBK1 [3]: 34.8 µM
- IC50, phosphorylation by TBK1 [4]: 27.3 µM
- IC50, phosphorylation by TBK1 [5]: 35.7 µM
- AS-MS ratio(%) [6]: 51.1%
- IC50, phosphorylation by IKKβ [7]: 7.2 µM
- IC50, phosphorylation by IKKβ [8]: 4 µM
- IC50, phosphorylation by IKKβ [9]: 5.3 µM

Binder: [dNMeA]SKYWNSWYNIWD (lactam N-13) [PP8]
- IC50 [1]: 7.4 µM
- IC50 [2]: 6.5 µM
- IC50, phosphorylation by TBK1 [3]: 6 µM
- IC50, phosphorylation by TBK1 [4]: 5.5 µM
- IC50, phosphorylation by TBK1 [5]: 2.9 µM
- AS-MS ratio(%) [6]: 6.2%
- IC50, phosphorylation by IKKβ [7]: 5.7 µM
- IC50, phosphorylation by IKKβ [8]: 7.8 µM
- IC50, phosphorylation by IKKβ [9]: 1.4 µM

Binder: [NMeA]RYAVYQWIYPD (lactam N-12) [PP12]
- IC50 [1]: > 62.1 µM
- IC50 [2]: > 62.1 µM
- IC50, phosphorylation by TBK1 [3]: 19.6 µM
- IC50, phosphorylation by TBK1 [4]: 22.5 µM
- IC50, phosphorylation by TBK1 [5]: 12.7 µM
- AS-MS ratio(%) [6]: 21%
- IC50, phosphorylation by IKKβ [7]: 20.7 µM
- IC50, phosphorylation by IKKβ [8]: 27 µM
- IC50, phosphorylation by IKKβ [9]: 6.8 µM

Binder: [NMeA]NFSNSWYNIWD (lactam N-12) [PP16]
- IC50 [1]: > 62.1 µM
- IC50 [2]: 20.2 µM
- IC50, phosphorylation by TBK1 [3]: > 62.1 µM
- IC50, phosphorylation by TBK1 [4]: 38.1 µM
- IC50, phosphorylation by TBK1 [5]: 52.4 µM
- AS-MS ratio(%) [6]: 17.9%
- IC50, phosphorylation by IKKβ [7]: 42.2 µM
- IC50, phosphorylation by IKKβ [8]: 30.8 µM
- IC50, phosphorylation by IKKβ [9]: 20.6 µM

Binder: [dNMeA]TYGHSSWYKIWD (lactam N-13) [PP9]
- IC50 [1]: 10.6 µM
- IC50 [2]: 8.3 µM
- IC50, phosphorylation by TBK1 [3]: 7.9 µM
- IC50, phosphorylation by TBK1 [4]: 6.6 µM
- IC50, phosphorylation by TBK1 [5]: 4.2 µM
- AS-MS ratio(%) [6]: 14.8%
- IC50, phosphorylation by IKKβ [7]: 6.2 µM
- IC50, phosphorylation by IKKβ [8]: 6.4 µM
- IC50, phosphorylation by IKKβ [9]: 2.7 µM

Binder: [NMeA]NFNSAYYRAIWD (lactam N-13) [PP7]
- IC50 [1]: 15.1 µM
- IC50 [2]: 17.9 µM
- IC50, phosphorylation by TBK1 [3]: 4.6 µM
- IC50, phosphorylation by TBK1 [4]: 4.7 µM
- IC50, phosphorylation by TBK1 [5]: 2.2 µM
- AS-MS ratio(%) [6]: 15.8%
- IC50, phosphorylation by IKKβ [7]: 3 µM
- IC50, phosphorylation by IKKβ [8]: 4.5 µM
- IC50, phosphorylation by IKKβ [9]: 0.8 µM

Binder: [NMeA]NSWYINIWGHD (lactam N-12) [PP15]
- IC50 [1]: 33.7 µM
- IC50 [2]: 13.7 µM
- IC50, phosphorylation by TBK1 [3]: 17.4 µM
- IC50, phosphorylation by TBK1 [4]: 9.5 µM
- IC50, phosphorylation by TBK1 [5]: 8.5 µM
- AS-MS ratio(%) [6]: 66.7%
- IC50, phosphorylation by IKKβ [7]: 22 µM
- IC50, phosphorylation by IKKβ [8]: 31 µM
- IC50, phosphorylation by IKKβ [9]: 5.6 µM

Binder: [NMeA]NYQSWYYRSIWD (lactam N-13) [PP10]
- IC50 [1]: 11.4 µM
- IC50 [2]: 9.8 µM
- IC50, phosphorylation by TBK1 [3]: 0.4 µM
- IC50, phosphorylation by TBK1 [4]: 0.2 µM
- IC50, phosphorylation by TBK1 [5]: 0.2 µM
- AS-MS ratio(%) [6]: 3.7%
- IC50, phosphorylation by IKKβ [7]: 1.8 µM
- IC50, phosphorylation by IKKβ [8]: 2.6 µM
- IC50, phosphorylation by IKKβ [9]: 0.5 µM

Binder: [NMeA]RFGVWSWIYPD (lactam N-12) [PP14]
- IC50 [1]: 20.1 µM
- IC50 [2]: 7.1 µM
- IC50, phosphorylation by TBK1 [3]: 6.8 µM
- IC50, phosphorylation by TBK1 [4]: 5.2 µM
- IC50, phosphorylation by TBK1 [5]: 3.1 µM
- AS-MS ratio(%) [6]: 4.2%
- IC50, phosphorylation by IKKβ [7]: 6.5 µM
- IC50, phosphorylation by IKKβ [8]: 9 µM
- IC50, phosphorylation by IKKβ [9]: 1.6 µM

Binder: [dNMeA]EDTPEDDHD (lactam N-10) [PP25]
- IC50 [1]: > 62.1 µM
- IC50 [2]: 13.1 µM
- IC50, phosphorylation by TBK1 [3]: 16.3 µM
- IC50, phosphorylation by TBK1 [4]: 16.1 µM
- IC50, phosphorylation by TBK1 [5]: 18.9 µM
- AS-MS ratio(%) [6]: 6.9%
- IC50, phosphorylation by IKKβ [7]: 27.6 µM
- IC50, phosphorylation by IKKβ [8]: 47.7 µM
- IC50, phosphorylation by IKKβ [9]: 27 µM

Binder: [NMeA]KFAQFRWIYPD (lactam N-12) [PP11]
- IC50 [1]: > 62.1 µM
- IC50 [2]: 60.9 µM
- IC50, phosphorylation by TBK1 [3]: > 62.1 µM
- IC50, phosphorylation by TBK1 [4]: 55.6 µM
- IC50, phosphorylation by TBK1 [5]: 29.1 µM
- AS-MS ratio(%) [6]: 5.1%
- IC50, phosphorylation by IKKβ [7]: > 62.1 µM
- IC50, phosphorylation by IKKβ [8]: > 62.1 µM
- IC50, phosphorylation by IKKβ [9]: 22.3 µM

Binder: [NMeA]DIWFDYWDWD (lactam N-11) [PP17]
- IC50 [1]: < 0.06 µM
- IC50 [2]: < 0.06 µM
- IC50, phosphorylation by TBK1 [3]: < 0.06 µM
- IC50, phosphorylation by TBK1 [4]: 0.3 µM
- IC50, phosphorylation by TBK1 [5]: < 0.06 µM
- AS-MS ratio(%) [6]: 67.8%
- IC50, phosphorylation by IKKβ [7]: 0.7 µM
- IC50, phosphorylation by IKKβ [8]: 0.3 µM
- IC50, phosphorylation by IKKβ [9]: 0.5 µM

Binder: [NMeA]RFRQWKWVYPD (lactam N-12) [PP13]
- IC50 [1]: 16.9 µM
- IC50 [2]: 13.8 µM
- IC50, phosphorylation by TBK1 [3]: 18 µM
- IC50, phosphorylation by TBK1 [4]: 17.7 µM
- IC50, phosphorylation by TBK1 [5]: 8.4 µM
- AS-MS ratio(%) [6]: 0.1%
- IC50, phosphorylation by IKKβ [7]: 23.2 µM
- IC50, phosphorylation by IKKβ [8]: 43.2 µM
- IC50, phosphorylation by IKKβ [9]: 3.6 µM
